Test results: publication PMC11243337, “Self-Responsive Fluorescence Aptasensor for Lactoferrin Determination in Dairy Products”

Target: Lactoferrin (Lf) (bovine (cow's milk), UniProt P24627 20-708)
Assay: fluorescence quenching (6-FAM); Tris-EDTA, no added ions; Lf 5 and 40 ug/mL; Tris-EDTA pH 8.0, no added salt, 25 C, 10 min; 90 uL of 50 nM aptamer + 100 uL Lf (0-100 ug/mL); Ex 485/Em 528 nm. Specificity section (alpha-La, beta-Lg, BSA)
Details: protein: commercial; label: 3'-6-FAM

Chain of Lactoferrin (Lf) (P24627 20-708): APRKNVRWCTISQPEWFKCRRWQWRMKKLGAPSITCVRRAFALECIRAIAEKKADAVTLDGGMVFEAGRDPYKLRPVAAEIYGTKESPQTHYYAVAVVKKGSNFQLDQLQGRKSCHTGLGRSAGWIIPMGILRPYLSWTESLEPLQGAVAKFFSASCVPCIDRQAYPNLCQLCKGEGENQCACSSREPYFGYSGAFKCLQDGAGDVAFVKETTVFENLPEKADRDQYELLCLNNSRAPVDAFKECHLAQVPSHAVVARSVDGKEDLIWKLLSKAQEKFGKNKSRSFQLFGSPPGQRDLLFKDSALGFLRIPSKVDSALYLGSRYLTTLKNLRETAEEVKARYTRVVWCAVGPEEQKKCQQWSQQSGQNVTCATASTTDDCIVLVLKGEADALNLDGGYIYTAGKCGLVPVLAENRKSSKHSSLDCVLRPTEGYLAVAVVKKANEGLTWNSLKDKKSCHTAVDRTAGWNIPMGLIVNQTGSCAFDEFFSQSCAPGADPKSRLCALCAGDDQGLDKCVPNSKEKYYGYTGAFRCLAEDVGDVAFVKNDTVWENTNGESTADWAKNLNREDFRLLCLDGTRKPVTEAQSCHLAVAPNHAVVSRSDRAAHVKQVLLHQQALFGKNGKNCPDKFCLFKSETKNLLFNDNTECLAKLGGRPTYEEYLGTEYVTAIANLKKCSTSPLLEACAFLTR

Does TGGTGCTGCCCCTAGTCTCCGGCTGATAGCTGCTTCTTGG (ssDNA) [Lf aptamer, 3'-6-FAM] bind?
Result: binds
